Results published in patent US20200199204A1.

What was measured:
Assay in all cases: cell-based or functional assay
[1] = target: HIV-1 Env of AC10.29 (HIV-1)
[2] = target: HIV-1 Env of KER2018.11 (HIV-1)
[3] = target: HIV-1 Env of Q769.d22 (HIV-1)
[4] = target: HIV-1 Env of TH976.17 (HIV-1)
[5] = target: HIV-1 Env of ZM233.6 (HIV-1)
[6] = target: HIV-1 Env of CAP210.E8 (HIV-1)
[7] = target: HIV-1 Env of ZM197.7 (HIV-1)
[8] = target: HIV-1 Env of Q168.a2 (HIV-1)
[9] = target: HIV-1 Env of ZM109.4 (HIV-1)
[10] = target: HIV-1 Env of Q259.d2.17 (HIV-1)
[11] = target: HIV-1 Env of ZM53.12 (HIV-1)
[12] = target: HIV-1 Env of RW020.2 (HIV-1)
[13] = target: HIV-1 Env of CM244.ec1 (HIV-1)
[14] = target: HIV-1 Env of RHPA.7 (HIV-1)
[15] = target: HIV-1 Env of ZM214.15 (HIV-1)
[16] = target: HIV-1 Env of CAP256.SU (HIV-1)
[17] = target: HIV-1 Env of DU156.12 (HIV-1)
[18] = target: HIV-1 Env of CAAN.A2 (HIV-1)
[19] = target: HIV-1 Env of WITO.33 (HIV-1)
[20] = target: HIV-1 Env of Q23.17 (HIV-1)
[21] = target: HIV-1 Env of Q842.d12 (HIV-1)
[22] = target: HIV-1 Env of CAP244.D3 (HIV-1)
[23] = target: HIV-1 Env of PVO.04 (HIV-1)
[24] = target: HIV-1 Env of TRO.11 (HIV-1)
[25] = target: HIV-1 Env of SC422.8 (HIV-1)
[26] = target: HIV-1 Env of UG037.8 (HIV-1)
[27] = target: HIV-1 Env of 96ZM651.02 (HIV-1)
[28] = target: HIV-1 Env of Q461.e2 (HIV-1)
[29] = target: HIV-1 Env of 6535.3 (HIV-1)
[30] = target: HIV-1 Env of ZM249.1 (HIV-1)
[31] = target: HIV-1 Env of CAP45.G3 (HIV-1)
[32] = target: HIV-1 Env of MB201 (HIV-1)
[33] = target: HIV-1 Env of KER2008.12 (HIV-1)
[34] = target: HIV-1 Env of BG505.w6m (HIV-1)
[35] = target: HIV-1 Env of 3016.V5.c36 (HIV-1)
[36] = target: HIV-1 Env of CAP256.PI (HIV-1)
[37] = target: HIV-1 Env of C1080.c3 (HIV-1)
[38] = target: HIV-1 Env of 0260.v5.c36 (HIV-1)
[39] = target: HIV-1 Env of TRJO.58 (HIV-1)
[40] = target: HIV-1 Env of 6405.v4.c34 (HIV-1)
[41] = target: HIV-1 Env of ZM135.10a (HIV-1)
[42] = target: HIV-1 Env of THRO.18 (HIV-1)
[43] = target: HIV-1 Env of CNE3 (HIV-1)
[44] = target: HIV-1 Env of DU172.17 (HIV-1)
[45] = target: HIV-1 Env of QH0692.42 (HIV-1)
[46] = target: HIV-1 Env of DU422.01 (HIV-1)
[47] = target: HIV-1 Env of MB539.2B7 (HIV-1)
[48] = target: HIV-1 Env of REJO.67 (HIV-1)

Measured: IC50 (neutralization, TZM-bl)

CAP256-VRC26.31 (antibody)
0.003 µg/mL: [6]
< 0.0006 µg/mL: [11] | [16]
3.22 µg/mL: [7]
4.46 µg/mL: [17]
1.67 µg/mL: [37]
4.16 µg/mL: [8]
0.262 µg/mL: [10]
0.74 µg/mL: [5]
1.66 µg/mL: [46]
0.002 µg/mL: [2]
> 50 µg/mL: all other assays above

CAP256-VRC26.33 (antibody)
0.017 µg/mL: [6]
0.007 µg/mL: [16]
0.622 µg/mL: [31]
22.5 µg/mL: [30]
0.015 µg/mL: [11]
1.73 µg/mL: [7]
0.004 µg/mL: [5]
0.037 µg/mL: [2]
0.036 µg/mL: [13]
0.506 µg/mL: [35]
29.5 µg/mL: [46]
> 50 µg/mL: all other assays above
